Earlier results, collected in publication PMC9887155, “Kinetics of cone specific G-protein signaling in avian photoreceptor cells” (Frontiers in Molecular Neuroscience, 2023).

Target: Gtα (Bos taurus) (UniProt P04695)
Assay: SPR

Chain of Gtα (Bos taurus) (P04695 2-350): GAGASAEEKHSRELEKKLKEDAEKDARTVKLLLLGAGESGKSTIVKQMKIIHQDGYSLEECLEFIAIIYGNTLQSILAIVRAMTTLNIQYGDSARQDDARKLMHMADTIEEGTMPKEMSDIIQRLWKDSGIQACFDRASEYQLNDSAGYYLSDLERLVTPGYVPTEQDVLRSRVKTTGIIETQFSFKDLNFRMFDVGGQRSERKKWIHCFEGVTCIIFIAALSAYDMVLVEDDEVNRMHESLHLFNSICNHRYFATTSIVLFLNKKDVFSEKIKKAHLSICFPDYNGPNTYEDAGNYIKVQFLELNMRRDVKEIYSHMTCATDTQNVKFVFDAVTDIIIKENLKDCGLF
Chain of rhodopsin (dark-adapted) (P02699 whole entry): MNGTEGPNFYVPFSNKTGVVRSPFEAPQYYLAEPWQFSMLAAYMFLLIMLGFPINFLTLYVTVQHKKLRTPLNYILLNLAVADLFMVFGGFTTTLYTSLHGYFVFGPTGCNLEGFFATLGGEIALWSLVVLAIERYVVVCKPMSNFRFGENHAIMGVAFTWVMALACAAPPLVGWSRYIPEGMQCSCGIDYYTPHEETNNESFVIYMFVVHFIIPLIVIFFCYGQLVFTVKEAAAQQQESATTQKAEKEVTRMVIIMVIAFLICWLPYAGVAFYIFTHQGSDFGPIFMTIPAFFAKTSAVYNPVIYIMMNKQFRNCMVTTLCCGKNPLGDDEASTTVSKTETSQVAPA

rhodopsin (dark-adapted) (from UniProt P02699)
Kd: 0.36 µM
